Results on 23 sequences are retold here after the supplement of paper PMC9112550, “Optimization of the antimicrobial peptide Bac7 by deep mutational scanning” (BMC Biology, 2022).
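Also: peptides expressed intracellularly from a pBAD plasmid library in pooled LB shake-flask culture, induced with 0.3% L-arabinose, DNA abundance read by NGS, three biological replicates, DESeq2 with apeglm shrinkage.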

The data set has as its system Escherichia coli TOP10. Nature of the data set: shrunken log2 fold change of peptide-encoding DNA abundance (4.5 h post-induction vs induction); higher = less antimicrobial activity (less host growth inhibition). The settings on record: time post-induction: 4.5 h; library: site-saturation at positions 5, 18, 19, 20.
Consider RRIRIRPPRLPRPRPRPFSVPRP, for which the “shrunken log2 fold change” value is -0.248.

In the case of RRIRYRPPRLPRPRPRPEVRPRP, the “shrunken log2 fold change” value was -0.187. The figure for RRIRERPPRLPRPRPRPANFPRP is -0.163.

Take RRIRARPPRLPRPRPRPKFGPRP: the “shrunken log2 fold change” value turned out to be 0.581. The figure for RRIRSRPPRLPRPRPRPNKYPRP is -0.653; for RRIRWRPPRLPRPRPRPNDNPRP it is -0.425.

In the case of RRIRVRPPRLPRPRPRPQWVPRP, the “shrunken log2 fold change” value is -0.222. The result for RRIRPRPPRLPRPRPRPNIPPRP reads -0.355. The result for RRIRIRPPRLPRPRPRPWRLPRP reads -0.0935; that for RRIRDRPPRLPRPRPRPKDKPRP, 0.0636. The result for RRIRQRPPRLPRPRPRPYVKPRP reads -0.365; that for RRIRRRPPRLPRPRPRPYFEPRP, -0.562.

On to RRIRERPPRLPRPRPRPIEYPRP, for which the “shrunken log2 fold change” value was -0.207. Take RRIRKRPPRLPRPRPRPVLFPRP: the “shrunken log2 fold change” value stood at 0.327. The figure for RRIRLRPPRLPRPRPRPIFDPRP is -0.0489; for RRIRARPPRLPRPRPRPSSAPRP it is 1.29; for RRIRRRPPRLPRPRPRPTSHPRP it is 0.321. The result for RRIRPRPPRLPRPRPRPHLTPRP reads 0.185; that for RRIRCRPPRLPRPRPRPDVPPRP, -0.0242. Regarding RRIRLRPPRLPRPRPRPKLGPRP, the “shrunken log2 fold change” value is -0.123. The result for RRIRDRPPRLPRPRPRPLWFPRP reads -0.0862; that for RRIRLRPPRLPRPRPRPYCQPRP, -0.797. The result for RRIRTRPPRLPRPRPRPCVKPRP reads 0.0506.
